In US20240239878A1 (SHANGHAI QILU PHARMACEUTICAL RESEARCH AND DEVELOPMENT CENTRE, published 2024):
Like-named read-outs stand apart in the source and are kept apart here.

B1: H1-39E2D11 mouse hybridoma-derived humanized anti-DLL3 antibody (antibody, V domains shown)
VH: QVQLVQSGAEVKKPGASVKVSCKASGYTFISYWITWVRQAPGQGLEWMGDIYPGSGSTTNYNEKFKSRVTMTRDTSTSTVYMELSSLRSEDTAVYYCARETTVGGAYAMDYWGQGTLVTVSS
VL: EIVLTQSPATLSLSPGERATLSCRASQSINNNLHWYQQKPGQAPRLLIYYVSQSISGIPARFSGSGSGTDFTLTISSLEPEDFAVYYCQQTNSWPLTFGGGTKLEIK
B2: 39E2D11-2 mouse hybridoma-derived anti-DLL3 chimeric antibody (antibody, V domains shown)
VH: QVQLKQSGPGLVQPSQSLSITCTVSGFSLTSYGVHWVRQSPGKGLEWLGVIWSGGSTDYNAAFISRLSISKDNPKSQVFFKMNSLQADDTAIYYCARENYYGNSLWFFDVWGTGTTVTVSS
VL: DIVLTQSPATLSVTPGDSVSLSCRASQSINNNLHWYQQKSHESPRLLIKYVSQSISGIPSRFSGSGSGTDFTLTINSVETEDFGMYFCQQTNSWPLTFGAGTKLELK
B3: 40G3D1 mouse hybridoma-derived anti-DLL3 chimeric antibody (antibody, V domains shown)
VH: QVQLQQSGAELVKPGASVKISCKASGYAFSSQWMNWVKQRPGKGLEWIGQIYPGNGDTNYNGKFKGKATLTADKSSSTAYIQLSSLTSEDSAVYFCARWFAYWGQGTLVTVSA
VL: DIVLTQSPVTLSVTPGDSVSLSCRASQSVRNNLHWYQQKSHESPRLLIKYVSQSISGIPSRFSGSGSGTDFTLSINSVETEDFGVYFCQQSNSWPLTFGAGTKLELK
B4: 47E12D12-1 mouse hybridoma-derived anti-DLL3 chimeric antibody (antibody, V domains shown)
VH: EVQLVESGGGLVKPGGSLKLSCAASGFTFSDYGMHWVRQAPEKGLEWVAYISSGSSTIYYADTVKGRFTISRDNAKNTLFLQMTSLRSEDTAMYYCARNSRGFAYWGQGTLVTVSA
VL: DIVLTQSPAIMSASPGEKVTMTCSASSSVSYMYWYQQKPGSSPRLLIYDTSNLASGVPVRFSGSGSGTSYSLTISRMEAEDAATYYCQQWSSYPRTFGGGTKLEIK
B5: 47E12D12-2 mouse hybridoma-derived anti-DLL3 chimeric antibody (antibody, V domains shown)
VH: EVQLVESGGGLVKPGGSLKLSCAASGFTFSDYGMHWVRQAPEKGLEWVAYISSGSSTIYYADTVKGRFTISRDNAKNTLFLQMTSLRSEDTAMYYCARNSRGFAYWGQGTLVTVSA
VL: DIVLIQSPTIMSASPGEKVTMTCSASSSVSSMHWYQQKSGTSPKRWIYDTSKLASGVPARFSGSGSGTSYSLTISTMEAEDAATYYCQQWNSYHLTFGAGTKLELK
B6: hDLL3-12-1 camelid-derived humanized anti-DLL3 antibody (antibody, V domains shown)
VH: QVQLVESGGGVVQPGRSLRLSCAASGFAFSSYDMHWVRQAPGKGLEWVSSISRDGRGPRYADSVKGRFTISRDNSKNTLYLQMNSLRAEDTAVYYCSKGYPIMGGTTQGTLVTVSS
B7: hDLL3-12-2 camelid-derived humanized anti-DLL3 antibody (antibody, V domains shown)
VH: QVQLVESGGGVVQPGRSLRLSCAASGFAFSSYDMHWVRQAPGKDFEWVSSISRDGRGPRYADSVKGRFTISRDNSKNTLYLQMNSLRAEDTAVYYCSKGYPIMGGTTQGTLVTVSS
B8: hDLL3-276 camelid-derived humanized anti-DLL3 antibody (antibody, V domains shown)
VH: QVQLVESGGGVVQPGGSLRLSCAASGSTASTTYMGWFRQAPGKGREGVAIIYTARDNPWYADSVKGRFTISRDNSKNTLYLQMNSLRAEDTAVYYCAATLANPTRTAWGQGTLVTVSS

Tests used:
[1] = target: T1, human DLL3 on SHP-77 cells (human, UniProt Q9NYJ7 27-618); assay: flow cytometry, SHP-77 cells
T1 construct: also called DLL3-expressing cells (SHP-77)
T1 sequence: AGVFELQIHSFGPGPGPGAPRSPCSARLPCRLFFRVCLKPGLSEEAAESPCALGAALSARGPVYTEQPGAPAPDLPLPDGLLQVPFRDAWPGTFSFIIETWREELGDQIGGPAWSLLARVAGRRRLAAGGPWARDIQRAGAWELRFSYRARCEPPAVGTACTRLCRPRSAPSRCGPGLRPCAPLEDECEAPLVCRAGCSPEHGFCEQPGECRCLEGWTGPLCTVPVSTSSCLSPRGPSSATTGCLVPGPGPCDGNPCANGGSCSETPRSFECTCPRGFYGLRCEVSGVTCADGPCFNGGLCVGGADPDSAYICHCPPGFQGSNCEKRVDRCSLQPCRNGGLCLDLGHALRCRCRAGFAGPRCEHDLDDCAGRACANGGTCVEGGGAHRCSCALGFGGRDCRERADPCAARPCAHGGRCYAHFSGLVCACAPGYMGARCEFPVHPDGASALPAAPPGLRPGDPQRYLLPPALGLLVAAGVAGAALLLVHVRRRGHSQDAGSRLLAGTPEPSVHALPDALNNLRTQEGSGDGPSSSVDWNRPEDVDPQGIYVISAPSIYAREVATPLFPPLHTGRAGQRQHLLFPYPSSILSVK
Protocol: SHP-77 cells were cultured. The culture medium for SHP-77 cells was RPMI1640+10% FBS. The cells were cultured in a T75 cell culture flask at a 37° C. 5% CO₂ incubator. When using cells, they are washed with sterile DPBS, digested with 0.25% trypsin EDTA for about 5 minutes, and then stopped with a complete medium.
(§1) The digested cells were centrifuged at 1000 rpm for 5 min at room temperature. The supernatant was discarded and the cells were resuspended in 100 μL of 1% BSA (in PBS). The cells were counted and adjusted to a cell density of 1E6/m. The dilute cells were plated in a 96-well round-bottom culture plate (corning 3799), and centrifuged at 1500 rpm for 5 min at 4° C. The supernatant was discarded and the cells were stored at 4° C. until use. Antibody samples to be tested were diluted with 1% BSA (in PBS) at a starting concentration of 100 nM, downwards by a 10-fold gradient for 7 concentrations. The cells were resuspended with the diluted antibody at 100 μL/well and incubated for 1 hour at 4° C. The cells were centrifuged at 1500 rpm for 5 minutes at 4° C. and the supernatant was discarded. The cells were resuspended and washed with 160 μL of 1% BSA (in PBS), centrifuged at 1500 rpm for 5 minutes at 4° C. The supernatant was discarded. The secondary antibody (goat anti human IgG Fc PE) was diluted 1:200 with 1% BSA (in PBS) according to the manufacturer's instructions and the cells were resuspended with the diluted secondary antibody, 100 µL/well, and incubated for 0.5 h at 4° C. The cells were centrifuged at 1500 rpm for 5 minutes at 4° C. and the supernatant was discarded. The cells were resuspended and washed with 160 μL of 1% BSA (in PBS), centrifuged at 1500 rpm for 5 minutes at 4° C. The supernatant was discarded. The cells were resuspended in 100 μL of 1% BSA (in PBS), and filtered across a 300 mesh gauze. The mean fluorescence intensity of the PE channels was measured by flow cytometry.
(§2) The analyzed mean fluorescence intensity was imported into Graphpad to analyze the median-binding concentration (hereinafter referred to as EC50) of antibody and cell and the top mean fluorescence intensity (Top MFI).

[2] = target: T1, human DLL3 on SHP-77 cells; assay: flow cytometry, SHP-77 cells; remark: listed apart in the source
Protocol: (§3) SHP-77 and HEK293-cyno DLL3 cells were cultured. The culture medium for SHP-77 cells were RPMI1640+10% FBS, and the culture medium for HEK293 cyno DLL3 cells was DMEM+10% FBS+200 μg/ml Hygromycin. The cells were cultured in a T75 cell culture flask at a 37° C. 5% CO₂ incubator. When using cells, they are washed with sterile DPBS, digested with 0.25% trypsin EDTA for about 5 minutes, and then stopped with a complete medium.
as §1, with “seeded” for “plated”, “antibody.” for “antibody,”
as §2

[3] = target: T1, human DLL3 on SHP-77 cells; assay: flow cytometry, SHP-77 cells; remark: listed apart in the source
Protocol: as §3, with “cells were” for “cells was”
as §1, with “seeded” for “plated”, “μL/well,” for “µL/well,”
as §2

[4] = target: T2, Cynomolgus monkey DLL3 on HEK293 cells (HEK293-cyno DLL3) (Cynomolgus monkey, UniProt Q9NYJ7 27-618 (human entry)); assay: flow cytometry, HEK293-cyno DLL3 cells
T2 chain: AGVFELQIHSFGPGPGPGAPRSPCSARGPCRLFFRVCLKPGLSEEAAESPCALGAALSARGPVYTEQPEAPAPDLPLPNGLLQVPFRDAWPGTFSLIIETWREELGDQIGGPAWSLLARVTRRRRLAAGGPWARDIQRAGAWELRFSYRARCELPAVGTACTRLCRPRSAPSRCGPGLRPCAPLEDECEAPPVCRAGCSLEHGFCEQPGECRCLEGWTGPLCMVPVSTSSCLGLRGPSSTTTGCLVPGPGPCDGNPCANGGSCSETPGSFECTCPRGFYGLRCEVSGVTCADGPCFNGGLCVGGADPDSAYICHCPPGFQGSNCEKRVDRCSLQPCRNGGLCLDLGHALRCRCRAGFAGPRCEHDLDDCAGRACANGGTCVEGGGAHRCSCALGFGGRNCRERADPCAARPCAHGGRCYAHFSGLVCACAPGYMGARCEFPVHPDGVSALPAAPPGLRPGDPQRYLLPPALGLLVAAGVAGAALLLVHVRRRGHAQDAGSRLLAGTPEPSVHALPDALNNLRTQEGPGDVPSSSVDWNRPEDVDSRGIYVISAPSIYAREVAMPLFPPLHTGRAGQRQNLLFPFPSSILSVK
Protocol: as §3, with “cells were” for “cells was”
as §1, with “seeded” for “plated”, “μL/well,” for “µL/well,”
as §2

Row | Binder | EC50 [2] | Top MFI [2] | EC50 [3] | Top MFI [3] | EC50 [4] | Top MFI [4] | also measured
1 | B1 |  |  |  |  |  |  | EC50 [1]: 2.13 nM; Top MFI [1]: 1430 MFI
2 | B2 | 8.63 nM | 193 MFI |  |  |  |  | 
3 | B3 |  | 369 MFI |  |  |  |  | 
4 | B4 | 1.45 nM | 178 MFI |  |  |  |  | 
5 | B5 | 69.3 nM | 455 MFI |  |  |  |  | 
6 | B6 |  |  | 0.052 nM | 690 MFI | 2.36 nM | 178 MFI | 
7 | B7 |  |  | 0.081 nM | 804 MFI | 1.35 nM | 190 MFI | 
8 | B8 |  |  | 0.389 nM | 622 MFI | 1.01 nM | 148 MFI | 
